Positions count from the first letter of the chain named. Names and notes keep the numbering of the source. Values belong to the molecule of their own block, whether it stands above or below them.
How the values were obtained:
human serum albumin = human serum albumin (Homo sapiens, UniProt P02768); experiment: FFAu profile in artificial plasma (FFA mixed with fatty acid free human serum albumin); format: binding; conditions: artificial plasma: defined FFA mix with fatty acid free HSA in Measuring buffer
Description: To determine if the low unbound POA levels were due to an interaction with some component of the blood sample matrix an artificial plasma was generated by mixing well defined amounts of the FFA used in Table 4 to fatty acid free human serum albumin in Measuring buffer.

[1] = FFAu profiles in plasma of rats infused with nicotinic acid and different oils; format: in vivo; conditions: rat plasma
Method: The 5 panels from top to bottom are: A: saline, B: nicotinic acid, C: nicotinic acid+safflower oil, D: nicotinic acid+olive oil, and E: nicotinic acid+coconut oil.
That the FFAu profiles are determined accurately by the method of the present invention is determined by infusing into the blood circulation, of animals and potentially in human subjects, oil/lipid emulsions of known composition, together with heparin. The oils are hydrolyzed by lipoprotein lipases that are released from the capillary endothelial cells by heparin. This lipase activity releases FFAu from the oil that is characteristic of the oil's known composition. Comparing FFAu profiles determined before and after infusion allows determination of the oil composition overlayed on the plasma matrix. Comparing results with different oils and at different levels assesses the validity of the method for determining FFAu profiles in blood samples (for example FIG. 2).
Results are averages of 7 animals for each condition. Nicotinic acid inhibits hormone sensitive lipase (HSL) in adipose tissue resulting in a reduction in circulating FFA levels. Whereas infusion of emulsions of oils of different compositions, together with heparin to activate lipoprotein lipase, will result in the increase of plasma FFA that reflect the composition of the infused oils. When infused together NA and oils results in FFAu profiles that are a conflation of the two effects. […] Adding NA reduces all FFAu except AA which becomes the dominant fraction at nearly 50%. […] NA plus coconut oil results in LAU and MA contributing over 90% of the total FFAu (total FFAu=sum of the concentrations of each of the 9 resolved FFAu). NA plus olive oil results in OA as the dominant FFAu but just barely because NA reduces baseline OA to zero and baseline LA is substantially larger than OA. Thus the FFAu profiles that result from NA plus oil are consistent with the conflation of the two effects. […] Whereas the amount of safflower and coconut oil infused increased the total FFAu to 42 and 92 nM, respectively, consistent with their dominant effects as compared to olive oil (FFAu total=8 nM).

[2] = Probe calibration by titration with FFA / FFA-BSA complexes: AA; format: binding; conditions: equilibrium dissociation constant of probe for AA
Method: (§1) Calibration: Each probe is calibrated to the extent that the constants in Equation 2 are well determined for all FFAu to be included in profile calculations. Equation 2, which is the form of equation 1 for a single FFAu, relates the FFAu concentration to the equilibrium dissociation constant (Kd), fluorometric constants (Q and Rm) and the measured R values.
(§2) The calibration parameters are determined essentially as described in U.S. Pat. No. 7,601,510 which is incorporated herein by reference and (Huber et al Biochemistry (2006) 45:14263-14274) where the calibrated ADIFAB2 probe was used to generate FFA-BSA complexes with accurate and well buffered FFAu concentrations. To calibrate probes with substantially higher affinities than used in U.S. Pat. No. 7,601,510 and (Huber et al Biochemistry (2006) 45:14263-14274) a boot strap method is used in which a probe having higher affinities is calibrated with ADTFAB2. Such a probe is then used to generate FFA-BSA complexes with FFAu concentrations from 0.1 to 10 nM and these complexes are then used to calibrate other high affinity probes.
(§3) Probe calibration involves titrating the probes with either (i) un-buffered FFA or (ii) BSA-buffered FFA stocks. The un-buffered titrations involve measuring the R-value of a 1 μM probe solution as it is slowly titrated to saturation with small aliquots of a 100 to 250 μM FFA stock (Richieri G V et al. (1992) J Biol Chem 267: 23495-23501, Richieri G V et al. (1999) Mol Cell Biochem 192: 87-94). In this case, the total FFA concentration for each point in the titration is known and a nonlinear fit to the titration data yields the full set of fluorometric constants. In an un-buffered FFA titration, probe concentration is a key variable because the probe binds FFA, directly affecting the FFAu value.
(§4) Alternatively, in a BSA-buffered FFA calibration, the probe solution is titrated with a series of FFA-BSA complexes (600 μM BSA with [FFAu] ranging from 0.1 nM to 4 μM). The titration samples are FFA-BSA complex diluted 50-fold in Measuring Buffer. Probe is added to a concentration of 0.5 μM and the R-value is measured. Because BSA buffers FFAu, its concentration remains constant (i.e. known), even after the addition of probe. […] At least two calibrations with each of the up to 15 different FFA are performed for each probe.
(§5) All of the probes reveal substantial differences for different FFAu and in many cases these differences are related to the aqueous solubility of the FFA. For example, of the FFA in Table 3, SA is the least soluble and MA the most soluble. As discussed in (Richieri G V et al (2000) Biochemistry 39: 7197-7204) the tendency of natural proteins and FABPs, in particular, is for binding constants to be largest (smallest Kd) for the least soluble FFA and conversely for the most soluble FA. In two cases, ADIFAB2 and L11, Kd for SA is substantially the smallest and MA the largest and that pattern is more or less maintained for most of the other probes in Table3 with the exception of L83. In that case MA has the largest affinity while SA's more than 10 fold smaller. To some extent the other calibrations constants follow that behavior; Q is largest for the smallest Kd and Rmax is often largest, so that the probe response tends to be larger for FFA with the larger affinities. The ability to generate mutations that overcome the “natural thermodynamics” allows for probes that have a wide range of specificities and sensitivities than enable the determination of FFAu profiles.

[3] = Probe calibration by titration with FFA / FFA-BSA complexes: DHA; format: binding; conditions: equilibrium dissociation constant of probe for DHA
Method: as §1, §2, §3, §4, §5

[4] = Probe calibration by titration with FFA / FFA-BSA complexes: LNA; format: binding; conditions: equilibrium dissociation constant of probe for LNA
Method: as §1, §2, §3, §4, §5

[5] = Probe calibration by titration with FFA / FFA-BSA complexes: LA; format: binding; conditions: equilibrium dissociation constant of probe for LA
Method: as §1, §2, §3, §4, §5

[6] = Probe calibration by titration with FFA / FFA-BSA complexes: OA; format: binding; conditions: equilibrium dissociation constant of probe for OA
Method: as §1, §2, §3, §4, §5

[7] = Probe calibration by titration with FFA / FFA-BSA complexes: PA; format: binding; conditions: equilibrium dissociation constant of probe for PA
Method: as §1, §2, §3, §4, §5

[8] = Probe calibration by titration with FFA / FFA-BSA complexes: POA; format: binding; conditions: equilibrium dissociation constant of probe for POA
Method: as §1, §2, §3, §4, §5

[9] = Probe calibration by titration with FFA / FFA-BSA complexes: SA; format: binding
Method: as §1, §2, §3, §4, §5

[10] = Probe calibration by titration with FFA / FFA-BSA complexes: MA; format: binding; conditions: equilibrium dissociation constant of probe for MA
Method: as §1, §2, §3, §4, §5

[11] = Probe response (increase in R) to 1 nM SA; format: binding; conditions: 1 nM of SA, FIG. 1
Description: The set of probes chosen to determine the profile of a sample depends upon the nature of the sample, the types of FFA expected to be present in the sample and the determination that the chosen probes respond to the expected FFA. In addition, especially for the least abundant FFAu in a sample, the probe's sensitivity for a given FFAu must be sufficient to accurately quantitate the low concentration FFAu, for example less than 50 pM. Sensitivity is a function of the Kd, Q, Ro and Rm parameters. Differences in sensitivity among different FFAu probes are apparent in FIG. 1 where for example for ADIFAB2 (acrylodan labeled at lysine 27), 1 nM of SA produces a 20% increase in R while for L11P7B3V26C the increases is almost 500%. […] In the absence of absolutely specific and sensitive probes the determination of FFAu profiles requires an over determined system, which empirically requires about twice the number of probes as FFAu to obtain accurate profiles. The identity of the set of probes to achieve accurate FFAu profiles is not unique. […]
The response profile is the fluorescence change as evaluated as (R−Ro)/Ro (ΔR/Ro) for each FFAu added as a complex of the FFA and albumin so that the FFAu concentration is clamped or buffered at 1 nM for every FFAu for which a calibration has been performed. […]

[12] = Probe response profile / specificity for different FFAu at 1 nM; format: binding; conditions: FFAu giving the largest response to 1 nM of each FFAu; several listed in order of degree of specificity
Description: The abbreviations are: arachidonate (AA), docosahexaenoate (DHA), eicosapentaenoate (EPA), laurate (LAU), linoleate (LA), linolenate (LNA), myristate (MA), oleate (OA), palmitate (PA), palmitoleate (POA), stearate (SA), and vaccenate (VA).
Examples of probes used, generally in groups of 10 or more, to determine FFAu profiles in biological samples such as blood plasma or serum from animals and humans or media from microorganisms are shown in Table 2. In the sequences presented in Table 2 and the sequence listing, amino acids are numbered from the first residue of the mature protein. The initiator methionine residue of the wild-type protein is removed by aminopeptidase activity, leaving an alanine as residue 1. Thus, counting backwards and skipping 0, the initiator methionine is at residue position −1. Specificity indicates the FFAu that gives the largest response to 1 nM of each FFAu when one FFAu dominates the profile and more than one when there is a more even distribution of specificity. Where more than one is indicated they are listed in order of degree of specificity. The abbreviations are: arachidonate (AA), docosahexaenoate (DHA), eicosapentaenoate (EPA), laurate (LAU), linoleate (LA), linolenate (LNA), myristate (MA), oleate (OA), palmitate (PA), palmitoleate (POA), stearate (SA), and vacsinate (VA). The sequences indicate mutations relative to SEQ ID NO: 1. This sequence is a mutated rat intestinal fatty acid binding protein with a Glu 131 to Asp substitution and includes a COOH-terminal affininity tag comprising […], Gly 133 and 6 histidines.
The response profile is the fluorescence change as evaluated as (R−Ro)/Ro (ΔR/Ro) for each FFAu added as a complex of the FFA and albumin so that the FFAu concentration is clamped or buffered at 1 nM for every FFAu for which a calibration has been performed. The calculation is performed simply by rearranging equation 2 to solve for ΔR/Ro. […] However all the probes have different profiles and therefore complementary specificities for different FFAu. Abbreviations are as in Table 2.

[13] = equilibrium dissociation constant of probe for SA, read-out: Kd SA

Chain of human serum albumin (P02768 25-609): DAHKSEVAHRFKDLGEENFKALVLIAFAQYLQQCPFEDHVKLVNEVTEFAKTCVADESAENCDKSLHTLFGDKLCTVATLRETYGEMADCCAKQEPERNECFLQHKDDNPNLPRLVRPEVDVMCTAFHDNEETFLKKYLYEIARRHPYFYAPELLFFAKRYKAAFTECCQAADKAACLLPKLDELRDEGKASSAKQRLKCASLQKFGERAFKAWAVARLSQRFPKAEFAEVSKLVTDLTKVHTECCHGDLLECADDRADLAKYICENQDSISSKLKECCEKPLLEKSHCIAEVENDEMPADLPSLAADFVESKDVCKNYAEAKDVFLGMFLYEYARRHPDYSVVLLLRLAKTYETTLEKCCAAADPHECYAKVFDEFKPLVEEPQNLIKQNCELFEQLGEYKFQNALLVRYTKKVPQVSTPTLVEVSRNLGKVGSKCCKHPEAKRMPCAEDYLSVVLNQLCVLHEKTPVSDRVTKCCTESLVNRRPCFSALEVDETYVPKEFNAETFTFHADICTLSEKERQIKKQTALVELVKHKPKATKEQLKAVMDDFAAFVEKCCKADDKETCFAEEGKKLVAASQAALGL

% FFAu (human serum albumin): 16.9%
Molecule: CCCCCC/C=C\CCCCCCCC(=O)O [POA, palmitoleate]

Molecule: O=C(O)c1cccnc1 [NA, nicotinic acid]
AA fraction of FFAu profile [1]: ~50%
baseline OA [1]: zero
total FFAu ([1]; sum of 9 resolved FFAu, averages of 7 animals): 2 nM
reduction of total FFAu ([1]; versus saline, no infused oil): more than 4 fold

Kd [2]: 167 nM
Kd [3]: 253 nM
Kd [4]: 237 nM
Kd [5]: 101 nM
Kd [6]: 32 nM
Kd [7]: 21.4 nM
Kd [8]: 257 nM
Kd [9, 13]: 9.3 nM
Kd [10]: 324 nM
B1: ADIFAB2: acrylodan-labeled (lysine 27) mutant FABP probe: L72A (protein, UniProt P02693 2-132, looked up, variant L72A)
Fatty acid-binding protein, …: AFDGTWKVDRNENYEKFMEKMGINVVKRKLGAHDNLKLTITQEGNKFTVKESSNFRNIDVVFELGVDFAYSAADGTELTGTWTMEGNKLVGKFKRVDNGKELIAVREISGNELIQTYTYEGVEAKRIFKKE
modifications: acrylodan label on K27
notes: acrylodan-labeled (lysine 27) mutant FABP probe: L72A
increase in R [11]: 20%

Kd [2]: 104 nM
Kd [3]: 248 nM
Kd [4]: 217 nM
Kd [5]: 97.5 nM
Kd [6]: 14.4 nM
Kd [7]: 45.4 nM
Kd [8]: 209 nM
Kd [9, 13]: 19.2 nM
Kd [10]: 299 nM
B2: L1P8 H2: acrylodan-labeled mutant FABP probe: Y14M, L38M, L72W (protein, UniProt P02693 2-132, looked up, variant Y14M L38M L72W)
Fatty acid-binding protein, …: B1 Fatty acid-binding protein, … with Y14M, L38M, A72W
modifications: acrylodan label
notes: acrylodan-labeled mutant FABP probe: Y14M, L38M, L72W
Specificity [12]: OA/SA/VA

Kd [2]: 1 nM
Kd [3]: 1.2 nM
Kd [4]: 2.7 nM
Kd [5]: 1.1 nM
Kd [6]: 1.3 nM
Kd [7]: 3 nM
Kd [8]: 5.5 nM
Kd [9, 13]: 2 nM
Kd [10]: 15.4 nM
B3: L10P7 A4 L30C: acrylodan-labeled mutant FABP probe: Y14L, M18L, K27A, L30C, G31Y, A73L, Y117A (protein, UniProt P02693 2-132, looked up, variant Y14L M18L K27A L30C G31Y A73L Y117A)
Fatty acid-binding protein, …: B1 Fatty acid-binding protein, … with Y14L, M18L, K27A, L30C, G31Y, A72L, A73L, Y117A
modifications: acrylodan label
notes: acrylodan-labeled mutant FABP probe: Y14L, M18L, K27A, L30C, G31Y, A73L, Y117A
Specificity [12]: AA/DHA/OA/EPA/LA

Kd [2]: 6.1 nM
Kd [3]: 7.5 nM
Kd [4]: 11.2 nM
Kd [5]: 3.9 nM
Kd [6]: 1 nM
Kd [7]: 1.1 nM
Kd [8]: 11.1 nM
Kd ([9]; read-out: Kd for SA): 0.25 nM
Kd [10]: 18.8 nM
B4: L11P7 B3 V26C: acrylodan-labeled mutant FABP probe: M21F, V26C, L72A, L78V, L102V (protein, UniProt P02693 2-132, looked up, variant M21F V26C L72A L78V L102V)
Fatty acid-binding protein, …: B1 Fatty acid-binding protein, … with M21F, V26C, L78V, L102V
modifications: acrylodan label
notes: acrylodan-labeled mutant FABP probe: M21F, V26C, L72A, L78V, L102V
increase in R [11]: ~500%

From patent publication US10705101B2, “Determination of the unbound free fatty acid profiles in biological and industrial specimens” (priority 2013, dated 2020)
